# Assay results published in the supplement of paper PMC12764529.
# ± gives the half width of the 95% confidence interval.
# Experiment: folding stability dG unfold from trypsin proteolysis; higher = more stable
# Summary of the method: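 Sequencing followed digestion of designed mini-proteins with trypsin and chymotrypsin, each at 11 concentrations in threefold dilutions together with a no-protease condition. The mini-proteins were under 80 residues, had no cysteine, sat in a PA-tagged cDNA display construct, and were kept only if AlphaFold2 dimer inter-PAE was above 15. From the counts, Bayesian fitting gave K50, and unfolding free energy was derived against a sequence-predicted unfolded-state K50 and a shared folded-state K50, per protease or combined.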
row,Sequence,folding stability dG unfold
1,SAGGSAGGSAKMIFVKNEDGTITMFTLNEDGYLTVTTVTLDKKTKKMTVETKTIKLTDPELLSAGGSAGGSA [r18_503_TrROS_Hall],1.16 ± 0.027 kcal/mol
2,SAGGPKTIMAMIPRDSPELRKALKWLEKAPPGEEVELKLPGKPIRITNIQPVDDWWMFSVKIPPGLKSAGGS [r16_404_TrROS],1.52 ± 0.16 kcal/mol
3,SAGGSAGGSAGKAKIVKIEKVKNKNGETYYIIKLEGKKEIFVIKDKNGKKKKIPLKELKPSAGGSAGGSAGG [r17_286_TrROS_Hall],1.42 ± 0.043 kcal/mol
4,SAGGSAGGSMEELPEGAELIREEDGVAVVRNENGELLVVRRVDGKLEVRRFPPGMSIEEALAKSAGGSAGGS [r12_605_TrROS_Hall],2.95 ± 0.064 kcal/mol
5,SAGGLENLENFELVETLTVKLPNGDKPVTLTLYRHPDGPAENVTSYEGKKYVFVVTDDSIEFFEGGTSAGGS [r16_711_TrMRF],0.0263 ± 0.044 kcal/mol
6,SAGGSMSTSTLVRREIASVDPETGLRVVRVEVEEVDYGFDPKTGTVLGVSPVSPVSESVLLLPADAPPESAG [r5_903_JUSTAS],-0.652 ± 0.23 kcal/mol
7,SAGGSFWVFVIEISVKFEQYGDPDGNWKFEIEKVDVKITEIIPIPPEMMDKLREAKAEGMEPEEILSAGGSA [r2_327_TrROS],1.65 ± 0.15 kcal/mol
8,SAGGSAGGSAGGMVELDPENGTLTVLVEVDGELYKVTIKFNPETNEIVSIEVEKLPELEESAGGSAGGSAGG [r7_343_TrROS_Hall],3.03 ± 0.41 kcal/mol
9,SAGGSAGGSAKPTYRVLVKNEDGEVLEAEVKVVDGKVEVTVNGKVYTFPKGAKIEIVKIEPVSAGGSAGGSA [r18_144_TrROS_Hall],3.34 ± 0.2 kcal/mol
10,SAGGSAGGSAGGSGVLNIDEVWEDPESDLYTVVTTGEDEGTRVFVFDKNGKLLAEADLPSAGGSAGGSAGGS [r4_259_TrMRF],0.274 ± 0.034 kcal/mol
11,SAGPVVLSPDDTVKIGKKELTFFSDGTVSVKYPDGTGESITVTVDPSSGNITLTETFTEPETGTTPVENSAG [r5_33_JUSTAS],0.473 ± 0.15 kcal/mol
12,SAGGSAGGSASMKKKKFVVKTEEEAEKVIAELKAKVPKGTEVEIYIKNEDGTLEKYAIIKISAGGSAGGSAG [r3_92_JUSTAS],2.91 ± 0.11 kcal/mol
13,SAGGMVNLRLYNPATGEPIDFPVPKDVVEEMLKNGDLAALEALFPGFPIAKVEVDEGEEVPAVPPDEASAGG [r13_629_TrMRF],0.776 ± 0.032 kcal/mol
14,SAGGSAGGSEIKIEKAEITVEYDEETGVFRATITLPDGYRITAEFRLRPDGSLELTRVEIEEVSAGGSAGGS [r12_111_TrROS_Hall],4.3 ± 0.19 kcal/mol
15,SAGGSAGGPLKVELVKAEILPGNKIIRVYRAELPTETYLAVIELHLNPDGEILSAKIKVYPLPESAGGSAGG [r6_19_TrMRF],2.85 ± 0.14 kcal/mol
16,SEEVEIEIRIRVEVDSLEEARALAEALEELGFEVEVKVVERDGKLVVEVTIRIRVPAPPPPPLSEEELKASA [r9_863_TrROS_Hall],2.49 ± 0.11 kcal/mol

row,Sequence,folding stability dG unfold
1,SAGGSAGGSAGGTITIPIYLDDKWITITRIELSPPDGKIKIEFTFNNRPREFDIPIPPGASAGGSAGGSAGG [r7_477_TrROS],1.9 ± 0.049 kcal/mol
2,SAGGSAGGSAGGGSVTIRVESPEEAVATAKELLEKLTGAKPEATPLNVVVEEPDGVATVESAGGSAGGSAGG [r7_387_JUSTAS],1.03 ± 0.058 kcal/mol
3,SAGGSAMTIEKREDGYLVITVDVPPGTSPEELAERLKKLFPNEEVTVTVVKDGKLVKEFVIKAEDLSAGGSA [r15_1047_TrROS_Hall],2.25 ± 0.056 kcal/mol
4,SAGGSAGGSAGAGKVVFEVDIKTFLGKRKDGSDAPKTIIEIKVFDIAPLDPNDPVLKALISAGGSAGGSAGG [r11_236_TrMRF],2.28 ± 0.11 kcal/mol
5,SAGGSAGGSAGGMEYSISNVTTETFPEGNKTVTVETYTFDDGGTITVTKENGKVLEVNPKSAGGSAGGSAGG [r7_552_JUSTAS],-1.57 ± 0.56 kcal/mol
6,SPAAELARRLFEELGLEAELVSVDPERRRVTFRVRHPDRAPLLLEVVYDPERPVFAIALNPETGRAVVPVSA [r9_1119_TrMRF],1.8 ± 0.039 kcal/mol
7,SAGGSAGGSAGGSKDITITHEHNPNGWYRVKIRFPDNGKKIEIWVPAGRSVEEALDWLFSAGGSAGGSAGGS [r4_393_TrROS],3.06 ± 0.12 kcal/mol
8,SAGGSGKVIGFSFEVETPEEAEGLFKENRPDLDVKILEVKPEEGYVRLVAVDPDGKPHVFVVPIVGSAGGSA [r2_201_TrMRF],0.743 ± 0.055 kcal/mol
9,SAGGMLTLIDPETGEPFLTTPIATFTVPVTLTGPDGKPLETRTLRITLFRAYRPDGSPALILLVSPESAGGS [r8_214_TrMRF],3.7 ± 0.083 kcal/mol
10,SMVIEINEDGTVKVYLPEELKGLSAEEIEELIKKLFGPNVKIEKIEIFEPPPKLTEEEKEELKKLPKEEKSA [r9_1011_TrROS_Hall],0.866 ± 0.17 kcal/mol
11,SAGGSAGGSAGGIEKFLEKHPELKIKKEIKIKIPYKTKDGKEFEVEYKIFYLTSEDEEDSAGGSAGGSAGGS [r10_0_TrMRF],1.39 ± 0.05 kcal/mol
12,SAGGSAGGRLLLVKITLPDGEEITIVLEFESEEEARAAAEALLPPGAKVEVRELSEEELEALLKSAGGSAGG [r6_267_TrROS_Hall],3.09 ± 0.049 kcal/mol
13,SAGPVLYRVTITVEVSSSGEKGKTLTLEFLVPPSVSGEEVRDRVLALLKAQGYKVEKITVTVTPLPSSASAG [r14_979_JUSTAS],4.03 ± 0.21 kcal/mol
14,SAGGSAGGELEELPGLKVVAVFELPGNRRLVLFEAEGGRYLLLVEGEGTRLVPVPEDVSLEELASAGGSAGG [r6_680_TrMRF],2.73 ± 0.043 kcal/mol
15,SMYYYGKFTFTNPTGGPTIGDVYIITKSKEEAEALAKEEASKKNVKVEIEIKEIPESEYENPEKVKELLSSA [r9_864_JUSTAS],0.285 ± 0.2 kcal/mol
